For test [1], the target named is T1, human GIPR expressed in HEK293 cells (human, UniProt P48546 22-466).
T1 chain: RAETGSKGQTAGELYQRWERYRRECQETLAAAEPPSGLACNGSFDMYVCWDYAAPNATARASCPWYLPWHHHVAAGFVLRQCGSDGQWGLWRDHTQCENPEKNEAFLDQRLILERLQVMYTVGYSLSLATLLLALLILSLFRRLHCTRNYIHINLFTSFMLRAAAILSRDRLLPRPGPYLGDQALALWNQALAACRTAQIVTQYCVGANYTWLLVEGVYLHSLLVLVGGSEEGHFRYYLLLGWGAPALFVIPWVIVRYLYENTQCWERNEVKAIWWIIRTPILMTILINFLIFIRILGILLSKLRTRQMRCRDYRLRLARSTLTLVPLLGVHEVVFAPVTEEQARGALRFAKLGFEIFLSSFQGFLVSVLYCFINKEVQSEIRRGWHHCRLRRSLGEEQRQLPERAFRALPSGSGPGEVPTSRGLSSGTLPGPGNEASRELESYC
As to the kind of experiment: [125I]GIP competition, cell membranes.

Test [2] addresses T2, isolated extracellular domain (ECD) of human GLP-1R, amino acids 24 to 145 (human, UniProt P43220 24-145).
T2 chain: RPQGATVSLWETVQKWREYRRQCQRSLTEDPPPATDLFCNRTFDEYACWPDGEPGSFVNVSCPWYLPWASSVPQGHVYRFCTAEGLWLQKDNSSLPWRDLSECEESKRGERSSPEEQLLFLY
Put plainly: SPR; kinetic fit. On the technique in general: SPR reads the build-up and loss of mass on a sensor chip optically.

In test [3] the target is T3, human GLP-1R expressed in HEK293 cells (human, UniProt P43220 24-463).
T3 chain: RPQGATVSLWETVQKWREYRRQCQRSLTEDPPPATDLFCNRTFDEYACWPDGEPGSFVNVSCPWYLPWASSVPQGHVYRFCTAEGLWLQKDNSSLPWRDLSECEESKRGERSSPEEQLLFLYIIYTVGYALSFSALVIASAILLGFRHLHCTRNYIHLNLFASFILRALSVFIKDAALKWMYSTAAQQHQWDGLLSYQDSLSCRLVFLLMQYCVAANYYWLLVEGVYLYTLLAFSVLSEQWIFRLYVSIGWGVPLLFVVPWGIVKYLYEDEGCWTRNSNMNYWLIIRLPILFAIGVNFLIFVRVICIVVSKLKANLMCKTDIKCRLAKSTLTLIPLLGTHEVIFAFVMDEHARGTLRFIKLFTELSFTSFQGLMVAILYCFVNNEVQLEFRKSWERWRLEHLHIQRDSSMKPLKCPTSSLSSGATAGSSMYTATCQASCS
As to the kind of experiment: [125I]GLP-1 competition, cell membranes.

In test [4] the target is T3, human GLP-1R expressed in HEK293 cells. As to the kind of experiment: [125I]GLP-1 competition, cell membranes.
In test [5] the target is T1, human GIPR expressed in HEK293 cells. Put plainly: [125I]GIP competition, cell membranes.

Where two headings read alike, the source gives them in different places. Where no end group is shown, it is not given here. [ ]: non-standard residue; d: D form. Aib = CC(C)(N)C(=O)O

The Ki is a measure of affinity in units of concentration, obtained from inhibition or displacement. Low readings indicate a stronger hold on the target, high ones a looser hold on the target. By Kd is commonly meant the concentration at which binding is half-saturated. Low readings indicate higher affinity, high ones lower affinity.

Regarding YAEGTFTSDYSI[Aib]LDKIAQKAFVQWLIAGGPSSGAPPPS [tirzepatide analog lacking the lipid moiety (TZP^ΔC20)], the inhibitory constant (Ki) was 0.0235 nM in test [1] and 2.67 nM in test [3]. In test [2], this molecule displayed an equilibrium dissociation constant (Kd) of 70.6 nM. In the case of HAEGTFTSDYSI[Aib]LDKIAQKAFVQWLIAGGPSSGAPPPS (not fully specified (residue 2, C-terminus); ends and bridges not checked), the Ki in test [4] was 0.599 nM; in test [5] it was 0.416 nM. YAEGTFTSDYSIALDKIAQKAFVQWLIAGGPSSGAPPPS (not fully specified) [tirzepatide (LY3298176)] displayed an inhibitory constant (Ki) in test [1] of 0.087 nM. In test [5], YAEGTFTSDVSSYLEGQAAKEFIAWLVKGR (not fully specified (C-terminus)) [GLP-1H7Y] returned a Ki greater than 128 nM.

For the origin of these results see PMC9060465 (2022).
